Data taken from the supplement of paper PMC9170038.

Test system: MS2 coat protein
Experiment: apparent KD of MS2 coat protein; designed switch direction (-1 OFF switch, 1 ON switch): 1; higher = weaker reporter binding
Outline: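 Transcription of designed RNA switches on Illumina chips was done by stalled E. coli RNA polymerase. SNAP-549-labelled MS2 coat protein was then titrated in doubling steps from 0.7 or 1.5 nM to 3 µM, with steps of 0.8–1.5 h at the lowest and 10–20 min at the highest concentration. The per-design median over clusters of curve-fitted normalised fluorescence is reported as apparent KD.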

[1] = input ligand: microRNA oligo, concentration not stated
[2] = Eterna round: R95, input ligand: FMN 200 uM
[3] = Eterna round: R95, input ligand: microRNA oligo, concentration not stated
[4] = Eterna round: R95, input ligand: none

Sequence	apparent KD of MS2 coat protein (input ligand: FMN 200 uM) [nM]	apparent KD of MS2 coat protein [1] [nM]	apparent KD of MS2 coat protein (input ligand: none) [nM]	apparent KD of MS2 coat protein [2] [nM]	apparent KD of MS2 coat protein [3] [nM]	apparent KD of MS2 coat protein [4] [nM]
AGGCUCAGACGAGGAUAUGGUCAUGGCGCUUCGGCGCAUACAUGAGGAUCACCCAUGUAGGGUGAUCAGAAGGCGUCUGAGCCA [SSNG2/9-A1] (Eterna round: R96, puzzle: Same State NG 2)	76.8	255	365			
UGUACCUUCAUAGGAUAUCAUGCGAAAAUUGCGUGAGAAGGGUGAAUACUGUCUUUCUAAGAGUACAUGAGGAUCACCCAUGUA [SameState NG1 #62] (Eterna round: R96, puzzle: Same State NG 1)	181	133	152			
GAGGAUGAUUUACAGGAUAUAUAGCAGAUGACAUGAGGAUCACCCAUGUAAGAGAAAGGAGGGAGAUAGAAGGGUAUGGGAGGUG [JR_SS2_Sub038] (puzzle: Same State 2)				29.3	35.4	43.5
AGCUUUUAAUUAGGAUAUGGUCACAUGAGGAUCACCCAUGUAACGAUGAUAUAAUGUGGUCAAGACUAGAAGGGAUCGCUAACA [SameState NG2 #69] (Eterna round: R96, puzzle: Same State NG 2)	320	282	284			
GGUAAGAACUAAGGAUAUUGAAUACAUAUGUUUAACAUGAGGAUCACCCAUGUGGGUUGCGGUGUCGAGAAGGUAGAAUAAUAG [Mat - same State NG 2 - JL mod - D102] (Eterna round: R96, puzzle: Same State NG 2)	204	166	193			
GCCAACUUAUGAGGAUAUGGCACCUUAUUGGUGCCAGAAGGCAUGUCAAUUGACAUGAGGAUCACCCAUGUAUUAUAGUUGGCA [Fiskers NG1ss - 21] (Eterna round: R96, puzzle: Same State NG 1)		326				
GGAGCCGGCCUAGGAUAUUUCAUAUAAAAACAUGAGGAUCACCCAUGUAGGCCAGAAGGCCUUGGGAAGAAGGAGGUCGGCUCC [Loop Effect - U25] (Eterna round: R96, puzzle: Same State NG 2)	12.4	27.2	30.1			
CGCCAGAGAACAGGAUAUGGGCCGCGGCCUAUGGGCUGCUAACUCACAUGAGGAUCACCCAUGUCCCAGAAGGGUUCCUGGCGG [Xediat] (Eterna round: R96, puzzle: Same State NG 2)	472	23.1	262			
ACCCGAAGUAUAUGGGAACAAGCUUUUUAACAUGAGGAUCACCCAUGUACUCGUCUUAUAAGCAGUCGAAAGACUGC [Sensor 100 - 5] (puzzle: Sensor for hsa-mir-208a)				21.7	17.3	44.5
AGCUAUCGAAAACGAUAGCAAAAGCAUGUACAUGAGGAUCACCCAUGUCAUGUACAAGUUUUUUGCUCGUCUUAAAA [Zipper 23 - 13] (puzzle: Sensor for hsa-mir-208a)				107	13.1	121
GGCGAACAGGCUAACAUGAGGAUCACCCAUGUGGACUCAUGGUAGGAUAUCGGGAAGGAGGAAACCGAGAAGGGCCGGUGAGCC [AK SSNG3-V2-48] (Eterna round: R96, puzzle: Same State NG 3)	14.3	20	716			
UGCAUACAUGAGGAUCACCCAUGUCAACGUAGCCGAGGAUAUGGAUUGCCGUGAGGCGUGCCAGAAGGCGGAGAGG [Same State 1 - Mod of Vinnie Teenbexe] (puzzle: Same State 1)				29.1	42.5	59
UGUUGUAUUACAGGAUAUCUAUUGUUUUGAUUUAGAGAAGGGUAUUCACAUGAGGAUCACCCAUGUAUAUACGAGGAAGUUGUG [JMF's solution 77] (Eterna round: R96, puzzle: Same State NG 1)	64.1	40.3	50.6			
UGGCUCAGAGCAGGAUAUAUGUAAUAACAUGAGGAUCACCCAUGUGUCGAGCUUCGGCUCGACACAUAGAAGGGCUCUGAGCCA [SSNG2/2-B2] (Eterna round: R96, puzzle: Same State NG 2)	13.3	29.2	40.9			
UGCAUACAUGAGGAUCACCCAUGUCAACGUAGUCGAGGAUAUGGGCAGCCGUGAGGCGUACCAGAAGGCGAAGAGG [JL-ss1-3.04 ViennaUCT mod] (puzzle: Same State 1)				28.7	62.2	77.9
GAGAGAGGGUGAGGAUAUUCGGUGAUAAUGAUGGGAGAAGGCACAGACAUGAGGAUCACCCAUGUGGGAAUAAUCCAGAGAGAG [Parity 12 - Jieux - Same State NG 1] (Eterna round: R96, puzzle: Same State NG 1)	138	83	181			

Sequence	apparent KD of MS2 coat protein (input ligand: FMN 200 uM) [nM]	apparent KD of MS2 coat protein [1] [nM]	apparent KD of MS2 coat protein (input ligand: none) [nM]	apparent KD of MS2 coat protein [2] [nM]	apparent KD of MS2 coat protein [3] [nM]	apparent KD of MS2 coat protein [4] [nM]
GUUAGGAAUCUAGCAUACAUGAGGAUCACCCAUGUUAGUGGGAAGGAUAUGGUACAGAAACUGUACCAGAAGGUCUUAUUGUUU [Omei SS(NG) 3 AV12] (Eterna round: R96, puzzle: Same State NG 3)	210	348	408			
CAGUGCUGUUGAGAGGAUAUGCGGCGACGGACAUGAGGAUCACCCAUGUUAGCGACAGCGUUGCGGCAGAAGGCUCUGCCCACUG [Soteed Omei mod 49] (puzzle: Same State 2)					8.8	
GGGAGACAUGAGGAUCACCCAUGUGGGAGGGAACGAGGAUAUGUAAGGAGAGAGAAUAGAACAGAAGGCGUAGGUG [JR_SS1_Sub022] (puzzle: Same State 1)				50	50	61.9
CAUCAUGCGUCUAAGGAUAUGUCUCACAAGACAUGAGGAUCACCCAUGUAGAAUAAAUAAAUGAUGCAGAAGGUGGAGCGCAUGC [Erzausis] (Eterna round: R96, puzzle: Same State 2)		253				
GCCAUCGCAUGAGGAUAUGGCACCGUUUCGGUGCCAGAAGGCAUGUCAUAAGACAUGAGGAUCACCCAUGUAGUUAAGAUGGCA [JL Fiskers NG1ss - 33 mod 8] (Eterna round: R96, puzzle: Same State NG 1)	31.4	521	751			
UGGUACAUGGGAGGAUAUGGAGUGAAGACAUGAGGAUCACCCAUGUUAUAAAAGCCGAGAGGCAACUAGAAGGCCCAUGUACCU [JL SSNG1 3.93] (Eterna round: R96, puzzle: Same State NG 2)	14.3	37	55			
GUUACAUGAGGAUCACCCAUGUAUGUGUGGGAGUAAGUGUCUUAGGAUAUCUAUGAUUUAACUUAAGAGAAGGAAGAUUGUUGU [JMF's solution 81] (Eterna round: R96, puzzle: Same State NG 3)	123	72.9	98.6			
GAGUAGUCAAAAGGAUAUUGAUUAUUGUAGGAUCAAGAAGGUUUUAACAUGAGGAUCACCCAUGUAGGACUAUUCCUGUGUAUC [Parity 91 - Jieux - Same State NG 1] (Eterna round: R96, puzzle: Same State NG 1)		10.8				
CCGAUUUAUGGAGGAUAUGGAGCCUUAUUGGCUCCAGAAGGUCAAUAACAUGAGGAUCACCCAUGUACGGCGGUCAAUAGACCG [Eli NG1ss - 70] (Eterna round: R96, puzzle: Same State NG 1)	24.8	28.1	34.6			
GGUCGGUCCUACAUGAGGAUCACCCAUGUUCCGGAAACGGCAUAGGAUAUCUGUCCGAAAAGGUCAGAGAAGGGUGAACCGACC [Fiskers NG3ss - 73] (Eterna round: R96, puzzle: Same State NG 3)	153	118	189			
AUAAAACAUGAGGAUCACCCAUGUCUACAAAGUCGAGGAUAUGGGCAAAUAAAAUAAGAACCAGAAGGCGAAUAAU [salish99_ss1_r3_044] (puzzle: Same State 1)				62.6	223	275
AUUGCUUACGCAGGAUAUGAUGCGAAAAUUGCGUCAGAAGGGUGAAGUGACUCGUUGCAACAAGACAUGAGGAUCACCCAUGUC [SameState NG1 #92] (Eterna round: R96, puzzle: Same State NG 1)	135	116	199			
ACGCAGCUGGGUGAGGAUAUUGGUGGUACAACAUGAGGAUCACCCAUGUCCGAAGCUCGGACCUCCGAGAAGGCGCCCGGCUGCG [Soinraesar Omei Mod 4] (puzzle: Same State 2)				39.7	269	912
AUAUGAGGAGCAGGAUAUGCGGAGAAGAAAGAAGCAGAAGGGCUCAUGGGACAACAUGAGGAUCACCCAUGUUCUCCGCGAUGA [AK SSNG1-V2-3.2] (Eterna round: R96, puzzle: Same State NG 1)	80.2	298	523			
CUCAAAACAAGUUGCAGUGUUCGUCUUUAACAUGAGGAUCACCCAUGUAAUAACCCGGUGGAAGCGCUCGGGCCACC [Gereerle] (puzzle: Sensor for hsa-mir-208a)				25.7	15.5	26.1
